pKd: −log10 of the molar value.
Key:
[1] = target: N2 A/Switzerland/8060/2017 (Influenza A virus (H3N2))
[2] = target: N2 A/HongKong/2671/2019 (Influenza A virus (H3N2))

Work on 1G01 Fab yielded a pKd [1] greater than 10.70 and a pKd [2] greater than 10.70.
